Measurements as given in patent US20100239597A1 (NORTHWESTERN UNIVERSITY, published 2010).

T1: biotin-Aβ1-20 (UniProt P05067 672-691, biotin (site not stated))
T1 construct: domain: Aβ1-20; Monomeric Aβ fragment used as BIACORE antigen; also called biotinylated-Aβ1-20
T1 peptide (looked up): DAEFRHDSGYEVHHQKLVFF


What was measured:
[1] = biological target: T2, biotinylated ADDL (bADDL) (UniProt P05067 672-713, N-terminal biotin); test: BIACORE, Fab against bADDL
T2 construct: domain: Aβ1-42; Panning and ELISA speak of 10% biotinylated ADDL; also called bADDLs; high molecular weight bADDL

biotin-Aβ1-20 = biological target: T1, biotin-Aβ1-20; test: BIACORE, Fab against biotinylated-Aβ1-20
[2] = biological target: T2, biotinylated ADDL (bADDL); test: BIACORE, bADDL as antigen; Fab
[3] = biological target: T2, biotinylated ADDL (bADDL); test: BIACORE, bADDL as antigen; IgG1#1
[4] = biological target: T2, biotinylated ADDL (bADDL); test: BIACORE, bADDL as antigen; IgG1#2

| Binder | Kd [1] [nM] | Kd (biotin-Aβ1-20) [nM] | Kd [2] [nM] | Kd [3] [nM] | further results |
| --- | --- | --- | --- | --- | --- |
| 4a-C9 Fab (Fab, V domains shown) VH: QVTLKESGPALVKPTQTLTLTCTLSGFSLSTSGMGVGWIRQPPGKALEWLAHIWWDDDKSYNPSLKSRLTISKDTSKNQVVLTMTNMDPVDTATYYCARRQLGQAGHDAMDYWGQGTTVTVSS VL: DVVMTQSPLSLPVTPGEPASISCRSSQSILHSNGNTYLEWYLQKPGQSPQLLIYKVSNRFSGVPDRFSGSGSGTDFTLKISRVEAEDVGVYYCLQTTRVPLTFGQGTKLEIKR | 8.43 | 2.46 |  |  |  |
| 4b-D4 Fab (Fab, V domains shown) VH: QVTLKESGPALVKPTQTLTLTCTLSGFSLSTSGMGVGWIRQPPGKALEWLAHIWWDDDKSYNPSLKSRLTISKDTSKNQVVLTMTNMDPVDTATYYCARRQLGMATPDAMDYWGQGTTVTVSS VL: DVVMTQSPLSLPVTPGEPASISCRSSQSILHSNGNTYLEWYLQKPGQSPQLLIYKVSNRFSGVPDRFSGSGSGTDFTLKISRVEAEDVGVYYCLQTTRVPLTFGQGTKLEIKR | 18.6 | 4.87 |  |  |  |
| 4b-A12 Fab (Fab, V domains shown) VH: QVTLKESGPALVKPTQTLTLTCTLSGFSLSTSGMGVGWIRQPPGKALEWLAHIWWDDDKSYNPSLKSRLTISKDTSKNQVVLTMTNMDPVDTATYYCARRQLGPEPQDAMDYWGQGTTVTVSS VL: DVVMTQSPLSLPVTPGEPASISCRSSQSILHSNGNTYLEWYLQKPGQSPQLLIYKVSNRFSGVPDRFSGSGSGTDFTLKISRVEAEDVGVYYCLQTTRVPLTFGQGTKLEIKR | 154 | 10.1 |  |  |  |
| 20C2-1A Fab (Fab, V domains shown) VH: QVTLKESGPALVKPTQTLTLTCTFSGFSLSTSGMGVGWIRQPPGKALEWLAHIWWDDDKSYNPSLKSRLTISKDTSKNQVVLTMTNMDPVDTATYYCARRQLGLRSIDAMDYWGQGTTVTVSS VL: DVVMTQSPLSLPVTPGEPASISCRSSQSILHSNGNTYLEWYLQKPGQSPQLLIYKVSNRFSGVPDRFSGSGSGTDFTLKISRVEAEDVGVYYCFQASRVPLTFGQGTKLEIKR |  |  | 85 |  |  |
| 20C2-13A Fab (Fab, V domains shown) VH: QVTLKESGPALVKPTQTLTLTCTFSGFSLSTSGMGVGWIRQPPGKALEWLAHIWWDDDKSYNPSLKSRLTISKDTSKNQVVLTMTNMDPVDTATYYCARRQLGLRSIDAMDYWGQGTTVTVSS VL: DVVMTQSPLSLPVTPGEPASISCRSSQSILHSNGNTYLEWYLQKPGQSPQLLIYKVSNRFSGVPDRFSGSGSGTDFTLKISRVEAEDVGVYYCLQTSNVPLTFGQGTKLEIKR |  |  | 567 |  |  |
| 20C2-9A Fab (Fab, V domains shown) VH: QVTLKESGPALVKPTQTLTLTCTFSGFSLSTSGMGVGWIRQPPGKALEWLAHIWWDDDKSYNPSLKSRLTISKDTSKNQVVLTMTNMDPVDTATYYCARRQLGLRSIDAMDYWGQGTTVTVSS VL: DVVMTQSPLSLPVTPGEPASISCRSSQSILHSNGNTYLEWYLQKPGQSPQLLIYKVSNRFSGVPDRFSGSGSGTDFTLKISRVEAEDVGVYYCVQTSLVPLTFGQGTKLEIKR |  |  | 40 |  |  |
| 4a-D5 Fab (Fab, V domains shown) VH: QVTLKESGPALVKPTQTLTLTCTLSGFSLSTSGMGVGWIRQPPGKALEWLAHIWWDDDKSYNPSLKSRLTISKDTSKNQVVLTMTNMDPVDTATYYCARRQLGDNVADAMDYWGQGTTVTVSS VL: DVVMTQSPLSLPVTPGEPASISCRSSQSILHSNGNTYLEWYLQKPGQSPQLLIYKVSNRFSGVPDRFSGSGSGTDFTLKISRVEAEDVGVYYCLQTTRVPLTFGQGTKLEIKR | 1.17 | 3.91 |  |  |  |
| 4a-E10 Fab (Fab, V domains shown) VH: QVTLKESGPALVKPTQTLTLTCTLSGFSLSTSGMGVGWIRQPPGKALEWLAHIWWDDDKSYNPSLKSRLTISKDTSKNQVVLTMTNMDPVDTATYYCARRQLGFQSTDAMDYWGQGTTVTVSS VL: DVVMTQSPLSLPVTPGEPASISCRSSQSILHSNGNTYLEWYLQKPGQSPQLLIYKVSNRFSGVPDRFSGSGSGTDFTLKISRVEAEDVGVYYCLQTTRVPLTFGQGTKLEIKR | 18.5 | 3.6 |  |  |  |
| 4b-B10 Fab (Fab, V domains shown) VH: QVTLKESGPALVKPTQTLTLTCTLSGFSLSTSGMGVGWIRQPPGKALEWLAHIWWDDDKSYNPSLKSRLTISKDTSKNQVVLTMTNMDPVDTATYYCARRQLGAHWLDAMDYWGQGTTVTVSS VL: DVVMTQSPLSLPVTPGEPASISCRSSQSILHSNGNTYLEWYLQKPGQSPQLLIYKVSNRFSGVPDRFSGSGSGTDFTLKISRVEAEDVGVYYCLQTTRVPLTFGQGTKLEIKR | 62.8 | 7.43 |  |  |  |
| 20C2-12A Fab (Fab, V domains shown) VH: QVTLKESGPALVKPTQTLTLTCTFSGFSLSTSGMGVGWIRQPPGKALEWLAHIWWDDDKSYNPSLKSRLTISKDTSKNQVVLTMTNMDPVDTATYYCARRQLGLRSIDAMDYWGQGTTVTVSS VL: DVVMTQSPLSLPVTPGEPASISCRSSQSILHSNGNTYLEWYLQKPGQSPQLLIYKVSNRFSGVPDRFSGSGSGTDFTLKISRVEAEDVGVYYCLQSSLVPLTFGQGTKLEIKR |  |  | 238 |  |  |
| 20C2-18A Fab (Fab, V domains shown) VH: QVTLKESGPALVKPTQTLTLTCTFSGFSLSTSGMGVGWIRQPPGKALEWLAHIWWDDDKSYNPSLKSRLTISKDTSKNQVVLTMTNMDPVDTATYYCARRQLGLRSIDAMDYWGQGTTVTVSS VL: DVVMTQSPLSLPVTPGEPASISCRSSQSILHSNGNTYLEWYLQKPGQSPQLLIYKVSNRFSGVPDRFSGSGSGTDFTLKISRVEAEDVGVYYCMQSSFVPLTFGQGTKLEIKR |  |  | 85 |  |  |
| 20C2-7A Fab (Fab, V domains shown) VH: QVTLKESGPALVKPTQTLTLTCTFSGFSLSTSGMGVGWIRQPPGKALEWLAHIWWDDDKSYNPSLKSRLTISKDTSKNQVVLTMTNMDPVDTATYYCARRQLGLRSIDAMDYWGQGTTVTVSS VL: DVVMTQSPLSLPVTPGEPASISCRSSQSILHSNGNTYLEWYLQKPGQSPQLLIYKVSNRFSGVPDRFSGSGSGTDFTLKISRVEAEDVGVYYCLNSTTVPLTFGQGTKLEIKR |  |  | 435 |  |  |
| 20C2-8A Fab (Fab, V domains shown) VH: QVTLKESGPALVKPTQTLTLTCTFSGFSLSTSGMGVGWIRQPPGKALEWLAHIWWDDDKSYNPSLKSRLTISKDTSKNQVVLTMTNMDPVDTATYYCARRQLGLRSIDAMDYWGQGTTVTVSS VL: DVVMTQSPLSLPVTPGEPASISCRSSQSILHSNGNTYLEWYLQKPGQSPQLLIYKVSNRFSGVPDRFSGSGSGTDFTLKISRVEAEDVGVYYCLQTTRVPLTFGQGTKLEIKR |  |  | 13 |  |  |
| 20C2-13A IgG1 (antibody, V domains shown, also called 4p1-20; 4P1-20) VH: QVTLKESGPALVKPTQTLTLTCTFSGFSLSTSGMGVGWIRQPPGKALEWLAHIWWDDDKSYNPSLKSRLTISKDTSKNQVVLTMTNMDPVDTATYYCARRQLGLRSIDAMDYWGQGTTVTVSS VL: DVVMTQSPLSLPVTPGEPASISCRSSQSILHSNGNTYLEWYLQKPGQSPQLLIYKVSNRFSGVPDRFSGSGSGTDFTLKISRVEAEDVGVYYCLQTSNVPLTFGQGTKLEIK |  |  |  | 0.764 |  |
| 20C2-18A IgG1 (antibody, V domains shown, also called SJ-p1-9M) VH: QVTLKESGPALVKPTQTLTLTCTFSGFSLSTSGMGVGWIRQPPGKALEWLAHIWWDDDKSYNPSLKSRLTISKDTSKNQVVLTMTNMDPVDTATYYCARRQLGLRSIDAMDYWGQGTTVTVSS VL: DVVMTQSPLSLPVTPGEPASISCRSSQSILHSNGNTYLEWYLQKPGQSPQLLIYKVSNRFSGVPDRFSGSGSGTDFTLKISRVEAEDVGVYYCMQSSFVPLTFGQGTKLEIK |  |  |  | 0.149 |  |
| 20C2-10A IgG1 (antibody, V domains shown, also called SJ-p3-33) VH: QVTLKESGPALVKPTQTLTLTCTFSGFSLSTSGMGVGWIRQPPGKALEWLAHIWWDDDKSYNPSLKSRLTISKDTSKNQVVLTMTNMDPVDTATYYCARRQLGLRSIDAMDYWGQGTTVTVSS VL: DVVMTQSPLSLPVTPGEPASISCRSSQSILHSNGNTYLEWYLQKPGQSPQLLIYKVSNRFSGVPDRFSGSGSGTDFTLKISRVEAEDVGVYYCFQGSRLPVSFGQGTKLEIK |  |  |  | 7.7 |  |
| 20C2-23A IgG1 (antibody, V domains shown, also called 4P1-40) VH: QVTLKESGPALVKPTQTLTLTCTFSGFSLSTSGMGVGWIRQPPGKALEWLAHIWWDDDKSYNPSLKSRLTISKDTSKNQVVLTMTNMDPVDTATYYCARRQLGLRSIDAMDYWGQGTTVTVSS VL: DVVMTQSPLSLPVTPGEPASISCRSSQSILHSNGNTYLEWYLQKPGQSPQLLIYKVSNRFSGVPDRFSGSGSGTDFTLKISRVEAEDVGVYYCHQSSKVPLTFGQGTKLEIK |  |  |  | 0.085 | Kd [4]: 0.066 nM |
| 20C2-20A IgG1 (antibody, V domains shown, also called SJ-p3-15) VH: QVTLKESGPALVKPTQTLTLTCTFSGFSLSTSGMGVGWIRQPPGKALEWLAHIWWDDDKSYNPSLKSRLTISKDTSKNQVVLTMTNMDPVDTATYYCARRQLGLRSIDAMDYWGQGTTVTVSS VL: DVVMTQSPLSLPVTPGEPASISCRSSQSILHSNGNTYLEWYLQKPGQSPQLLIYKVSNRFSGVPDRFSGSGSGTDFTLKISRVEAEDVGVYYCFQGSLFPPVFGQGTKLEIK |  |  |  | 6.9 |  |
| 20C2-12A IgG1 (antibody, V domains shown, also called 4P1-32) VH: QVTLKESGPALVKPTQTLTLTCTFSGFSLSTSGMGVGWIRQPPGKALEWLAHIWWDDDKSYNPSLKSRLTISKDTSKNQVVLTMTNMDPVDTATYYCARRQLGLRSIDAMDYWGQGTTVTVSS VL: DVVMTQSPLSLPVTPGEPASISCRSSQSILHSNGNTYLEWYLQKPGQSPQLLIYKVSNRFSGVPDRFSGSGSGTDFTLKISRVEAEDVGVYYCLQSSLVPLTFGQGTKLEIK |  |  |  | 0.015 |  |
| 20C2-9A IgG1 (antibody, V domains shown, also called SJ-p2-51) VH: QVTLKESGPALVKPTQTLTLTCTFSGFSLSTSGMGVGWIRQPPGKALEWLAHIWWDDDKSYNPSLKSRLTISKDTSKNQVVLTMTNMDPVDTATYYCARRQLGLRSIDAMDYWGQGTTVTVSS VL: DVVMTQSPLSLPVTPGEPASISCRSSQSILHSNGNTYLEWYLQKPGQSPQLLIYKVSNRFSGVPDRFSGSGSGTDFTLKISRVEAEDVGVYYCVQTSLVPLTFGQGTKLEIK |  |  |  |  | Kd [4]: 0.002 nM |
